Drawing on the Human Domainome abundance scans (Beltran et al. 2025), this text covers abundance fitness for 33 variants.

First the molecules themselves.
B1: POU domain, class 4, transcription factor 1, residues 266 to 347; numbered along this chain, Q01851 (parent)
chain: RELEAFAERFKQRRIKLGVTQADVGSALANLKIPGVGSLSQSTICRFESLTLSHNNMIALKPILQAWLEEAEGAQREKMNKP

± gives the uncertainty stated by the source.

Variants of B1 are the subject of this data set. Put plainly: abundance fitness (aPCA) (normalised: wild type 0, dead -1); higher = more abundant; growth selection in yeast, the domain comes from the species named. As to conditions: Homo sapiens.
For RELEAFAERFKQRRIKLGVTQADVGSALANLKIPGVGSLKQSTICRFESLTLSHNNMIALKPILQAWLEEAEGAQREKMNKP [S40K], the abundance fitness was -0.079 ± 0.06.

With RELEAFAERFKQRRIKLGVTQADVGSALANLKIPGVGSLYQSTICRFESLTLSHNNMIALKPILQAWLEEAEGAQREKMNKP [S40Y], the abundance fitness was -0.307 ± 0.24.

For the variant RELEAFAERFKQRRIKLGVTQADVGSALANLKIPGVGSLHQSTICRFESLTLSHNNMIALKPILQAWLEEAEGAQREKMNKP [S40H], the abundance fitness was -0.159 ± 0.16. Next, RELEAFAERFKQRRIKLGVTQADVGSALANLKIPGVGSLIQSTICRFESLTLSHNNMIALKPILQAWLEEAEGAQREKMNKP [S40I]: -0.202 ± 0.17.

Turning to RELEAFAERFKQRRIKLGVTQADVGSALANLKIPGVGSLLQSTICRFESLTLSHNNMIALKPILQAWLEEAEGAQREKMNKP [S40L], the abundance fitness was -0.238 ± 0.052. Next, RELEAFAERFKQRRIKLGVTQADVGSALANLKIPGVGSLVQSTICRFESLTLSHNNMIALKPILQAWLEEAEGAQREKMNKP [S40V]: -0.331 ± 0.055; RELEAFAERFKQRRIKLGVTQADVGSALANLKIPGVGSLRQSTICRFESLTLSHNNMIALKPILQAWLEEAEGAQREKMNKP [S40R]: -0.155 ± 0.041; RELEAFAERFKQRRIKLGVTQADVGSALANLKIPGVGSLEQSTICRFESLTLSHNNMIALKPILQAWLEEAEGAQREKMNKP [S40E]: -0.063 ± 0.051. On to RELEAFAERFKQRRIKLGVTQADVGSALANLKIPGVGSLFQSTICRFESLTLSHNNMIALKPILQAWLEEAEGAQREKMNKP [S40F], for which the abundance fitness was -0.263 ± 0.11.

For the variant RELEAFAERFKQRRIKLGVTQADVGSALANLKIPGVGSLMQSTICRFESLTLSHNNMIALKPILQAWLEEAEGAQREKMNKP [S40M], the abundance fitness is -0.359 ± 0.096.

Consider RELEAFAERFKQRRIKLGVTQADVGSALANLKIPGVGSLDQSTICRFESLTLSHNNMIALKPILQAWLEEAEGAQREKMNKP [S40D], for which the abundance fitness came to 0.042 ± 0.099.

Regarding RELEAFAERFKQRRIKLGVTQADVGSALANLKIPGVGSLPQSTICRFESLTLSHNNMIALKPILQAWLEEAEGAQREKMNKP [S40P], the abundance fitness was -0.15 ± 0.066. Under RELEAFAERFKQRRIKLGVTQADVGSALANLKIPGVGSLNQSTICRFESLTLSHNNMIALKPILQAWLEEAEGAQREKMNKP [S40N] stands -0.05 ± 0.1; under RELEAFAERFKQRRIKLGVTQADVGSALANLKIPGVGSLWQSTICRFESLTLSHNNMIALKPILQAWLEEAEGAQREKMNKP [S40W], -0.369 ± 0.076; under RELEAFAERFKQRRIKLGVTQADVGSALANLKIPGVGSLQQSTICRFESLTLSHNNMIALKPILQAWLEEAEGAQREKMNKP [S40Q], -0.072 ± 0.075. Under RELEAFAERFKQRRIKLGVTQADVGSALANLKIPGVGSLGQSTICRFESLTLSHNNMIALKPILQAWLEEAEGAQREKMNKP [S40G] stands -0.058 ± 0.035; under RELEAFAERFKQRRIKLGVTQADVGSALANLKIPGVGSLSGSTICRFESLTLSHNNMIALKPILQAWLEEAEGAQREKMNKP [Q41G], 0.003 ± 0.034; under RELEAFAERFKQRRIKLGVTQADVGSALANLKIPGVGSLSYSTICRFESLTLSHNNMIALKPILQAWLEEAEGAQREKMNKP [Q41Y], -0.194 ± 0.12. Under RELEAFAERFKQRRIKLGVTQADVGSALANLKIPGVGSLSWSTICRFESLTLSHNNMIALKPILQAWLEEAEGAQREKMNKP [Q41W] stands -0.074 ± 0.051; under RELEAFAERFKQRRIKLGVTQADVGSALANLKIPGVGSLSPSTICRFESLTLSHNNMIALKPILQAWLEEAEGAQREKMNKP [Q41P], 0.104 ± 0.091.

Turning to RELEAFAERFKQRRIKLGVTQADVGSALANLKIPGVGSLSMSTICRFESLTLSHNNMIALKPILQAWLEEAEGAQREKMNKP [Q41M], the abundance fitness was -0.074 ± 0.064. Under RELEAFAERFKQRRIKLGVTQADVGSALANLKIPGVGSLSISTICRFESLTLSHNNMIALKPILQAWLEEAEGAQREKMNKP [Q41I] stands 0.074 ± 0.14; under RELEAFAERFKQRRIKLGVTQADVGSALANLKIPGVGSLSHSTICRFESLTLSHNNMIALKPILQAWLEEAEGAQREKMNKP [Q41H], 0.149 ± 0.11.

On to RELEAFAERFKQRRIKLGVTQADVGSALANLKIPGVGSLSNSTICRFESLTLSHNNMIALKPILQAWLEEAEGAQREKMNKP [Q41N], for which the abundance fitness was -0.137 ± 0.13.

For the variant RELEAFAERFKQRRIKLGVTQADVGSALANLKIPGVGSLSESTICRFESLTLSHNNMIALKPILQAWLEEAEGAQREKMNKP [Q41E], the abundance fitness worked out at 0.051 ± 0.039. On to RELEAFAERFKQRRIKLGVTQADVGSALANLKIPGVGSLSFSTICRFESLTLSHNNMIALKPILQAWLEEAEGAQREKMNKP [Q41F], for which the abundance fitness came out at 0.084 ± 0.095. Next, RELEAFAERFKQRRIKLGVTQADVGSALANLKIPGVGSLSTSTICRFESLTLSHNNMIALKPILQAWLEEAEGAQREKMNKP [Q41T]: -0.055 ± 0.062; RELEAFAERFKQRRIKLGVTQADVGSALANLKIPGVGSLSKSTICRFESLTLSHNNMIALKPILQAWLEEAEGAQREKMNKP [Q41K]: 0 ± 0.066. As to RELEAFAERFKQRRIKLGVTQADVGSALANLKIPGVGSLSVSTICRFESLTLSHNNMIALKPILQAWLEEAEGAQREKMNKP [Q41V], the abundance fitness was -0.054 ± 0.04. As for RELEAFAERFKQRRIKLGVTQADVGSALANLKIPGVGSLSASTICRFESLTLSHNNMIALKPILQAWLEEAEGAQREKMNKP [Q41A], the abundance fitness came out at 0.053 ± 0.044. Take RELEAFAERFKQRRIKLGVTQADVGSALANLKIPGVGSLSDSTICRFESLTLSHNNMIALKPILQAWLEEAEGAQREKMNKP [Q41D]: the abundance fitness came to 0.048 ± 0.084. Next, RELEAFAERFKQRRIKLGVTQADVGSALANLKIPGVGSLSQCTICRFESLTLSHNNMIALKPILQAWLEEAEGAQREKMNKP [S42C]: -0.071 ± 0.055; RELEAFAERFKQRRIKLGVTQADVGSALANLKIPGVGSLSQQTICRFESLTLSHNNMIALKPILQAWLEEAEGAQREKMNKP [S42Q]: -0.113 ± 0.065.
